Experimental data: patent publication US8748182B2, “Mutant proteins and methods for producing them” (Heptares Therapeutics Limited, priority 2007, dated 2014)

Assay: Thermostability of solubilised adenosine A2a receptor and mutants (radioligand binding after or during heating)
Assay type: physicochemical
Excerpt: FIG. 12 Flow chart showing the two different assay formats of ligand (+) and ligand (−) used to determine receptor thermostablity.
• 1. 315 site-directed mutants made between residues 2-316 of A2aR. • 2. All of these mutants have been assayed for thermostability using an assay measuring agonist and antagonist binding after the heating step (Ligand(−) format as described in FIG. 12). • a. […] Mutations have been combined to generate mutants in a putative antagonist conformation. Wildtype A2aR has a Tm of 31° C. with ZM241385 bound. • a. Rant17 A54L+K122A+L235A Tm 48° C. (ZM241385 bound) • b. Rant19 A54L,T88A,V239A+A204L Tm 47° C. (ZM241385 bound) • c. Rant21 A54L,T88A,V239A+K122A Tm 49° C. (ZM241385 bound) • 4. Mutations from the agonist screen have been combined, but have led to only a very low level of improvement in Tm of +2° C.

[1] = Ligand(−) format, binding after the heating step

B1: P149A: A2aR point mutant (protein, UniProt P29274 1-412, looked up, variant P149A)
Adenosine receptor A2a: MPIMGSSVYITVELAIAVLAILGNVLVCWAVWLNSNLQNVTNYFVVSLAAADIAVGVLAIPFAITISTGFCAACHGCLFIACFVLVLTQSSIFSLLAIAIDRYIAIRIPLRYNGLVTGTRAKGIIAICWVLSFAIGLTPMLGWNNCGQAKEGKNHSQGCGEGQVACLFEDVVPMNYMVYFNFFACVLVPLLLMLGVYLRIFLAARRQLKQMESQPLPGERARSTLQKEVHAAKSLAIIVGLFALCWLPLHIINCFTFFCPDCSHAPLWLMYLAIVLSHTNSVVNPFIYAYRIREFRQTFRKIIRSHVLRQQEPFKAAGTSARVLAAHGSDGEQVSLRLNGHPPGVWANGSAPHPERRPNGYALGLVSGGSAQESQGNTGLPDVELLSHELKGVCPEPPGLDDPLAQDGAGVS
thermostability assayed with 3H-ZM241385 (antagonist) [1]: improved thermostability

B2: L167A: A2aR point mutant (protein, UniProt P29274 1-412, looked up, variant L167A)
Adenosine receptor A2a: MPIMGSSVYITVELAIAVLAILGNVLVCWAVWLNSNLQNVTNYFVVSLAAADIAVGVLAIPFAITISTGFCAACHGCLFIACFVLVLTQSSIFSLLAIAIDRYIAIRIPLRYNGLVTGTRAKGIIAICWVLSFAIGLTPMLGWNNCGQPKEGKNHSQGCGEGQVACAFEDVVPMNYMVYFNFFACVLVPLLLMLGVYLRIFLAARRQLKQMESQPLPGERARSTLQKEVHAAKSLAIIVGLFALCWLPLHIINCFTFFCPDCSHAPLWLMYLAIVLSHTNSVVNPFIYAYRIREFRQTFRKIIRSHVLRQQEPFKAAGTSARVLAAHGSDGEQVSLRLNGHPPGVWANGSAPHPERRPNGYALGLVSGGSAQESQGNTGLPDVELLSHELKGVCPEPPGLDDPLAQDGAGVS
thermostability measured with 3H-NECA (agonist) [1]: improved thermostability

B3: A231L: A2aR point mutant (protein, UniProt P29274 1-412, looked up, variant A231L)
Adenosine receptor A2a: MPIMGSSVYITVELAIAVLAILGNVLVCWAVWLNSNLQNVTNYFVVSLAAADIAVGVLAIPFAITISTGFCAACHGCLFIACFVLVLTQSSIFSLLAIAIDRYIAIRIPLRYNGLVTGTRAKGIIAICWVLSFAIGLTPMLGWNNCGQPKEGKNHSQGCGEGQVACLFEDVVPMNYMVYFNFFACVLVPLLLMLGVYLRIFLAARRQLKQMESQPLPGERARSTLQKEVHLAKSLAIIVGLFALCWLPLHIINCFTFFCPDCSHAPLWLMYLAIVLSHTNSVVNPFIYAYRIREFRQTFRKIIRSHVLRQQEPFKAAGTSARVLAAHGSDGEQVSLRLNGHPPGVWANGSAPHPERRPNGYALGLVSGGSAQESQGNTGLPDVELLSHELKGVCPEPPGLDDPLAQDGAGVS
thermostability assayed with 3H-ZM241385 (antagonist) [1]: improved thermostability

B4: Rant17: A2aR with A54L+K122A+L235A (protein, UniProt P29274 1-412, looked up, variant A54L K122A L235A)
Adenosine receptor A2a: MPIMGSSVYITVELAIAVLAILGNVLVCWAVWLNSNLQNVTNYFVVSLAAADILVGVLAIPFAITISTGFCAACHGCLFIACFVLVLTQSSIFSLLAIAIDRYIAIRIPLRYNGLVTGTRAAGIIAICWVLSFAIGLTPMLGWNNCGQPKEGKNHSQGCGEGQVACLFEDVVPMNYMVYFNFFACVLVPLLLMLGVYLRIFLAARRQLKQMESQPLPGERARSTLQKEVHAAKSAAIIVGLFALCWLPLHIINCFTFFCPDCSHAPLWLMYLAIVLSHTNSVVNPFIYAYRIREFRQTFRKIIRSHVLRQQEPFKAAGTSARVLAAHGSDGEQVSLRLNGHPPGVWANGSAPHPERRPNGYALGLVSGGSAQESQGNTGLPDVELLSHELKGVCPEPPGLDDPLAQDGAGVS
Tm (ZM241385 bound) (ZM241385 bound): 48 °C

B5: A204L: A2aR point mutant (protein, UniProt P29274 1-412, looked up, variant A204L)
Adenosine receptor A2a: MPIMGSSVYITVELAIAVLAILGNVLVCWAVWLNSNLQNVTNYFVVSLAAADIAVGVLAIPFAITISTGFCAACHGCLFIACFVLVLTQSSIFSLLAIAIDRYIAIRIPLRYNGLVTGTRAKGIIAICWVLSFAIGLTPMLGWNNCGQPKEGKNHSQGCGEGQVACLFEDVVPMNYMVYFNFFACVLVPLLLMLGVYLRIFLALRRQLKQMESQPLPGERARSTLQKEVHAAKSLAIIVGLFALCWLPLHIINCFTFFCPDCSHAPLWLMYLAIVLSHTNSVVNPFIYAYRIREFRQTFRKIIRSHVLRQQEPFKAAGTSARVLAAHGSDGEQVSLRLNGHPPGVWANGSAPHPERRPNGYALGLVSGGSAQESQGNTGLPDVELLSHELKGVCPEPPGLDDPLAQDGAGVS
thermostability assayed with 3H-ZM241385 (antagonist) [1]: improved thermostability

B6: L235A: A2aR point mutant (protein, UniProt P29274 1-412, looked up, variant L235A)
Adenosine receptor A2a: MPIMGSSVYITVELAIAVLAILGNVLVCWAVWLNSNLQNVTNYFVVSLAAADIAVGVLAIPFAITISTGFCAACHGCLFIACFVLVLTQSSIFSLLAIAIDRYIAIRIPLRYNGLVTGTRAKGIIAICWVLSFAIGLTPMLGWNNCGQPKEGKNHSQGCGEGQVACLFEDVVPMNYMVYFNFFACVLVPLLLMLGVYLRIFLAARRQLKQMESQPLPGERARSTLQKEVHAAKSAAIIVGLFALCWLPLHIINCFTFFCPDCSHAPLWLMYLAIVLSHTNSVVNPFIYAYRIREFRQTFRKIIRSHVLRQQEPFKAAGTSARVLAAHGSDGEQVSLRLNGHPPGVWANGSAPHPERRPNGYALGLVSGGSAQESQGNTGLPDVELLSHELKGVCPEPPGLDDPLAQDGAGVS
thermostability assayed with 3H-ZM241385 (antagonist) [1]: improved thermostability

B7: V239A: A2aR point mutant (protein, UniProt P29274 1-412, looked up, variant V239A)
Adenosine receptor A2a: MPIMGSSVYITVELAIAVLAILGNVLVCWAVWLNSNLQNVTNYFVVSLAAADIAVGVLAIPFAITISTGFCAACHGCLFIACFVLVLTQSSIFSLLAIAIDRYIAIRIPLRYNGLVTGTRAKGIIAICWVLSFAIGLTPMLGWNNCGQPKEGKNHSQGCGEGQVACLFEDVVPMNYMVYFNFFACVLVPLLLMLGVYLRIFLAARRQLKQMESQPLPGERARSTLQKEVHAAKSLAIIAGLFALCWLPLHIINCFTFFCPDCSHAPLWLMYLAIVLSHTNSVVNPFIYAYRIREFRQTFRKIIRSHVLRQQEPFKAAGTSARVLAAHGSDGEQVSLRLNGHPPGVWANGSAPHPERRPNGYALGLVSGGSAQESQGNTGLPDVELLSHELKGVCPEPPGLDDPLAQDGAGVS
thermostability assayed with 3H-ZM241385 (antagonist) [1]: improved thermostability

B8: G152A: A2aR point mutant (protein, UniProt P29274 1-412, looked up, variant G152A)
Adenosine receptor A2a: MPIMGSSVYITVELAIAVLAILGNVLVCWAVWLNSNLQNVTNYFVVSLAAADIAVGVLAIPFAITISTGFCAACHGCLFIACFVLVLTQSSIFSLLAIAIDRYIAIRIPLRYNGLVTGTRAKGIIAICWVLSFAIGLTPMLGWNNCGQPKEAKNHSQGCGEGQVACLFEDVVPMNYMVYFNFFACVLVPLLLMLGVYLRIFLAARRQLKQMESQPLPGERARSTLQKEVHAAKSLAIIVGLFALCWLPLHIINCFTFFCPDCSHAPLWLMYLAIVLSHTNSVVNPFIYAYRIREFRQTFRKIIRSHVLRQQEPFKAAGTSARVLAAHGSDGEQVSLRLNGHPPGVWANGSAPHPERRPNGYALGLVSGGSAQESQGNTGLPDVELLSHELKGVCPEPPGLDDPLAQDGAGVS
thermostability assayed with 3H-ZM241385 (antagonist) [1]: improved thermostability

B9: E151A: A2aR point mutant (protein, UniProt P29274 1-412, looked up, variant E151A)
Adenosine receptor A2a: MPIMGSSVYITVELAIAVLAILGNVLVCWAVWLNSNLQNVTNYFVVSLAAADIAVGVLAIPFAITISTGFCAACHGCLFIACFVLVLTQSSIFSLLAIAIDRYIAIRIPLRYNGLVTGTRAKGIIAICWVLSFAIGLTPMLGWNNCGQPKAGKNHSQGCGEGQVACLFEDVVPMNYMVYFNFFACVLVPLLLMLGVYLRIFLAARRQLKQMESQPLPGERARSTLQKEVHAAKSLAIIVGLFALCWLPLHIINCFTFFCPDCSHAPLWLMYLAIVLSHTNSVVNPFIYAYRIREFRQTFRKIIRSHVLRQQEPFKAAGTSARVLAAHGSDGEQVSLRLNGHPPGVWANGSAPHPERRPNGYALGLVSGGSAQESQGNTGLPDVELLSHELKGVCPEPPGLDDPLAQDGAGVS
thermostability assayed with 3H-ZM241385 (antagonist) [1]: improved thermostability
